Data as given in article PMC6212769, “CRISPR–Cas adaptation in Escherichia coli requires RecBCD helicase but not nuclease activity, is independent of homologous recombination, and is antagonized by 5′ ssDNA exonucleases”.

Experiments:
[1] = molecular target: T1, Cas1-Cas2 complex (Escherichia coli, UniProt Q46896;P45956 1-305;1-94); assay: EMSA; no Mg2+ added; EMSA: 20 nM DNA, 0-500 nM Cas1-Cas2, 20 mM Tris-HCl pH 8.0, BSA 100 (ug/ml), 7% glycerol, 37 C 30 min; 5% acrylamide TBE gel; conditions: protein: recombinant, tags: Cas1 N-terminal His6, Cas2 untagged, chain copies: 4;2, label: 5'-Cy5 on strand 1, 10 bp duplex
T1 sequence 1: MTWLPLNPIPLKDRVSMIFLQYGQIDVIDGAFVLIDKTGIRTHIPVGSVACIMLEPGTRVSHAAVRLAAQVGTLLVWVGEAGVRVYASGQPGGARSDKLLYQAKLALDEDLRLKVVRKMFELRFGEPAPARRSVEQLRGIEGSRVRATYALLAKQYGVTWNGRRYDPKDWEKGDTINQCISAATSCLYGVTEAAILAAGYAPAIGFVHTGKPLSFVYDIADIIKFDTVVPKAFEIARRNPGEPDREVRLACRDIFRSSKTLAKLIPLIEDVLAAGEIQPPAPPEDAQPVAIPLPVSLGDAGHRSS
T1 sequence 2: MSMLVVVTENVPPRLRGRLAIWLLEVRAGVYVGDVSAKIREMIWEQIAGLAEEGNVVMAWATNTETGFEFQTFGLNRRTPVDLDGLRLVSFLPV

[2] = molecular target: T1, Cas1-Cas2 complex; assay: EMSA; no Mg2+ added; up to 500 nM; EMSA: 20 nM DNA, 0-500 nM Cas1-Cas2, 20 mM Tris-HCl pH 8.0, BSA 100 (ug/ml), 7% glycerol, 37 C 30 min; 5% acrylamide TBE gel; conditions: protein: recombinant; tags: Cas1 N-terminal His6; Cas2 untagged; chain copies: 4;2; label: 5'-Cy5 on strand 1; blunt
[3] = molecular target: T1, Cas1-Cas2 complex; assay: EMSA; no Mg2+ added; complex formation improved over DNA-10; EMSA: 20 nM DNA, 0-500 nM Cas1-Cas2, 20 mM Tris-HCl pH 8.0, BSA 100 (ug/ml), 7% glycerol, 37 C 30 min; 5% acrylamide TBE gel; conditions: protein: recombinant; tags: Cas1 N-terminal His6; Cas2 untagged; chain copies: 4;2; label: 5'-Cy5 on strand 1; 14 bp duplex, 5' overhang 36 nt

B1: DNA-10 (mixed)
DNA 1: AATCAAAGTGGACCCAACTCGAAATCAACCGTAACAAGCAACAAGCAGGC
DNA 2: GCCTGCTTGT
B1: binds ([1]; 5' overhang 40 nt).

B2: Duplex (dsDNA)
DNA 1: AATCAAAGTGGACCCAACTCGAAATCAACCGTAACAAGCAACAAGCAGGC
DNA 2: GCCTGCTTGTTGCTTGTTACGGTTGATTTCGAGTTGGGTCCACTTTGATT
B2: no binding [2].

B3: DNA-14 (mixed)
DNA 1: AATCAAAGTGGACCCAACTCGAAATCAACCGTAACAAGCAACAAGCAGGC
DNA 2: GCCTGCTTGTTGCT
B3: binds [3].

B4: DNA-3' (3' overhang) (mixed)
DNA 1: CGGACGAACAACGAACAATGCCAACTAAAGCTCAACCCAGGTGAAACTAA
DNA 2: TGTTCGTCCG
B4: binds ([1]; 3' overhang 40 nt).
